Test results as given in US20110143428A1 (Genentech, published 2011).

Molecular target: T1, hVEGF-C (human, UniProt P49767)
T1 construct: unlabelled; also called human VEGF-C
T1 sequence (VEGF-C, looked up): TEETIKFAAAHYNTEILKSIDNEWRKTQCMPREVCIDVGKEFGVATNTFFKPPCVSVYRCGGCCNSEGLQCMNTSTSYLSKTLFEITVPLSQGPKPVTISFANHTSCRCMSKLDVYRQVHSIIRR
Test: phage competition ELISA: phage-displayed clone incubated with increasing soluble hVEGF-C, unbound phage captured on hVEGF-C coated plate, anti-M13-HRP, OD450

B1: VC1.1 (antibody, V domains shown)
VH: EVQLVESGGGLVQPGGSLRLSCAASGFTFSDSDIHWVRQAPGKGLEWVAWISPYSGYTDYADSVKGRFTISADTSKNTAYLQMNSLRAEDTAVYYCARLFKVIFDYWGQGTLVTVSS
VL: DIQMTQSPSSLSASVGDRVTITCRASQDVSTAVAWYQQKPGKAPKLLIYSASFLYSGVPSRFSGSGSGTDFTLTISSLQPEDFATYYCQQSYTTPPTFGQGTKVEIK
notes: also called clone VC1.1
Work on B1 yielded an IC50 of 0.0415 µM.
